Earlier results, collected in PMC4440832.

Tests used:
BMP5 (Homo sapiens) = BMP5 (Homo sapiens) (UniProt P22003); assay: SPR
BMP6 (Homo sapiens) = BMP6 (Homo sapiens) (UniProt P22004); assay: SPR
BMP7 (Homo sapiens) = BMP7 (Homo sapiens) (UniProt P18075); assay: SPR
BMP2 (Homo sapiens) [1] = molecular target: BMP2 (Homo sapiens) (UniProt P12643); assay: SPR
BMP2 (Homo sapiens) [2] = molecular target: BMP2 (Homo sapiens) (UniProt P12643); assay: radioligand binding
BMP4 (Homo sapiens) [3] = molecular target: BMP4 (Homo sapiens) (UniProt P12644); assay: radioligand binding
BMP4 (Homo sapiens) [4] = molecular target: BMP4 (Homo sapiens) (UniProt P12644); assay: SPR
netrin = netrin (UniProt O95631)

Sequence of RGMa.Fc ECD (Q6PCX7 48-427): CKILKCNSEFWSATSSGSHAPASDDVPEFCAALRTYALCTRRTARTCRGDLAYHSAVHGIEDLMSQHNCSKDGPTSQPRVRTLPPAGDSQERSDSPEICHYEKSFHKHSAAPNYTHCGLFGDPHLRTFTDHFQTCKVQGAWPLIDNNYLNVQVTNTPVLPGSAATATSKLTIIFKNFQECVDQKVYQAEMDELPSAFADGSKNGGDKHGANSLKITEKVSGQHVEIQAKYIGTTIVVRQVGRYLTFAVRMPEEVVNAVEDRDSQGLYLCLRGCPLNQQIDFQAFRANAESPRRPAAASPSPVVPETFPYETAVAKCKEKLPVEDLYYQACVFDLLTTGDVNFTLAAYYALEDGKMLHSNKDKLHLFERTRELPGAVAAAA
Sequence of BMP6 (Homo sapiens) (P22004 375-513): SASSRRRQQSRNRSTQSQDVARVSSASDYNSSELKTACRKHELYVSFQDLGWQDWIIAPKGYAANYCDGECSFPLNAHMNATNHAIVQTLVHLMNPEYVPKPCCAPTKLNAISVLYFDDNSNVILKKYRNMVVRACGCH
Sequence of RGMb (Q6NW40 46-413): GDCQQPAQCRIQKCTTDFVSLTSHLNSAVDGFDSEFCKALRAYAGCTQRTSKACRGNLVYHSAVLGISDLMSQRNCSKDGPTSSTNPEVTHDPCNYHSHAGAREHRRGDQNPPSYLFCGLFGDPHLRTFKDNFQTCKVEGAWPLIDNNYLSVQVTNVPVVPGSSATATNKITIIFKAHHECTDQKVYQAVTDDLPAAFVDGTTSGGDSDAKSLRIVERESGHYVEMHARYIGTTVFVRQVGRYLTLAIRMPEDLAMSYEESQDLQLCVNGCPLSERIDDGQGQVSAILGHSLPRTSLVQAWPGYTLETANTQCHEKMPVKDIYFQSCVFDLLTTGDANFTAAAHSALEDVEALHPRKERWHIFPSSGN
Sequence of HJV (Q6ZVN8 36-400): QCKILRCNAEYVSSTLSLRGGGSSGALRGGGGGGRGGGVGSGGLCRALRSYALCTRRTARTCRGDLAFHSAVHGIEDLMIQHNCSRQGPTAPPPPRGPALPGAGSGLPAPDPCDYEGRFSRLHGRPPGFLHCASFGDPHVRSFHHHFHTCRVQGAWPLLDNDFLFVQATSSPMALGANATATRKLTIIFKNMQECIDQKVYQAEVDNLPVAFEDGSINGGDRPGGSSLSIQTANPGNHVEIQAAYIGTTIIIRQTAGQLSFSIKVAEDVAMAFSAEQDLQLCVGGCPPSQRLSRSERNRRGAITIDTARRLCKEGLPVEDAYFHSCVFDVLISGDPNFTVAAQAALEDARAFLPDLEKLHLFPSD
Sequence of BMP2 (Homo sapiens) (P12643 283-396): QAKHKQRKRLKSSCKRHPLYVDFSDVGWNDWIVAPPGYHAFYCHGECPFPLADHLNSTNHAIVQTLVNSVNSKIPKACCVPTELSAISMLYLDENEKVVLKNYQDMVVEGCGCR
Sequence of BMP4 (Homo sapiens) (P12644 293-408): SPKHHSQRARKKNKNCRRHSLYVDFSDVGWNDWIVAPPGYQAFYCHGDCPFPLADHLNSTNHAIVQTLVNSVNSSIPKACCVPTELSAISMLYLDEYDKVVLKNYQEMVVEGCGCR
Sequence of RGMa (Q96B86 48-424): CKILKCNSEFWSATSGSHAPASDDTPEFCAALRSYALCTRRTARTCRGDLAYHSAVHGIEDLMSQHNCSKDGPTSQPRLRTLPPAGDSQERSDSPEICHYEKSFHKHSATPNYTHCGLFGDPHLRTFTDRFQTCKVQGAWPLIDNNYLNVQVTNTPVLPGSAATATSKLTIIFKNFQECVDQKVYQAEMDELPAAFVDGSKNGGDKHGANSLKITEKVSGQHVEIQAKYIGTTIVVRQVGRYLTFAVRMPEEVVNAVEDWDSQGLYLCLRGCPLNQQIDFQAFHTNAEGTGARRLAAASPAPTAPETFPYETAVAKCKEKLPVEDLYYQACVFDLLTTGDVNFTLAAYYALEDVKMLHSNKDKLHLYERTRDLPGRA
Sequence of BMP5 (Homo sapiens) (P22003 317-454): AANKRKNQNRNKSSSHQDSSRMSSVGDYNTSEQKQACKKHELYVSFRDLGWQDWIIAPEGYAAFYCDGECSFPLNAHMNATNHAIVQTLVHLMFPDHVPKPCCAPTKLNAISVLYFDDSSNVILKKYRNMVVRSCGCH
Sequence of BMP7 (Homo sapiens) (P18075 293-431): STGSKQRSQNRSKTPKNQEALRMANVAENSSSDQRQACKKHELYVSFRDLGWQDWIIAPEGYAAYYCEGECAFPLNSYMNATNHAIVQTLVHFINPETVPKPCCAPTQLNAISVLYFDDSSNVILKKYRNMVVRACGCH
Sequence of RGMb.Fc ECD (Q7TQ33 49-415): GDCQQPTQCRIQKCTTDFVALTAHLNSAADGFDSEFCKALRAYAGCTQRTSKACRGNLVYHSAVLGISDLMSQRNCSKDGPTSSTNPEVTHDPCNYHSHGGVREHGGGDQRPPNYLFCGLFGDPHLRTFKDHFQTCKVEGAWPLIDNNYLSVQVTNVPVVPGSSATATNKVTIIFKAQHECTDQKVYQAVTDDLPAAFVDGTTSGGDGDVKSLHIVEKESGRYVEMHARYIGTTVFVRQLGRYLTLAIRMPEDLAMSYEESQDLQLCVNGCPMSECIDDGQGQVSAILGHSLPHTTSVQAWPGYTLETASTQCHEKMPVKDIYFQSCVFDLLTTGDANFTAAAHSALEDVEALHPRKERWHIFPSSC
Sequence of neogenin (Q92859 34-1105): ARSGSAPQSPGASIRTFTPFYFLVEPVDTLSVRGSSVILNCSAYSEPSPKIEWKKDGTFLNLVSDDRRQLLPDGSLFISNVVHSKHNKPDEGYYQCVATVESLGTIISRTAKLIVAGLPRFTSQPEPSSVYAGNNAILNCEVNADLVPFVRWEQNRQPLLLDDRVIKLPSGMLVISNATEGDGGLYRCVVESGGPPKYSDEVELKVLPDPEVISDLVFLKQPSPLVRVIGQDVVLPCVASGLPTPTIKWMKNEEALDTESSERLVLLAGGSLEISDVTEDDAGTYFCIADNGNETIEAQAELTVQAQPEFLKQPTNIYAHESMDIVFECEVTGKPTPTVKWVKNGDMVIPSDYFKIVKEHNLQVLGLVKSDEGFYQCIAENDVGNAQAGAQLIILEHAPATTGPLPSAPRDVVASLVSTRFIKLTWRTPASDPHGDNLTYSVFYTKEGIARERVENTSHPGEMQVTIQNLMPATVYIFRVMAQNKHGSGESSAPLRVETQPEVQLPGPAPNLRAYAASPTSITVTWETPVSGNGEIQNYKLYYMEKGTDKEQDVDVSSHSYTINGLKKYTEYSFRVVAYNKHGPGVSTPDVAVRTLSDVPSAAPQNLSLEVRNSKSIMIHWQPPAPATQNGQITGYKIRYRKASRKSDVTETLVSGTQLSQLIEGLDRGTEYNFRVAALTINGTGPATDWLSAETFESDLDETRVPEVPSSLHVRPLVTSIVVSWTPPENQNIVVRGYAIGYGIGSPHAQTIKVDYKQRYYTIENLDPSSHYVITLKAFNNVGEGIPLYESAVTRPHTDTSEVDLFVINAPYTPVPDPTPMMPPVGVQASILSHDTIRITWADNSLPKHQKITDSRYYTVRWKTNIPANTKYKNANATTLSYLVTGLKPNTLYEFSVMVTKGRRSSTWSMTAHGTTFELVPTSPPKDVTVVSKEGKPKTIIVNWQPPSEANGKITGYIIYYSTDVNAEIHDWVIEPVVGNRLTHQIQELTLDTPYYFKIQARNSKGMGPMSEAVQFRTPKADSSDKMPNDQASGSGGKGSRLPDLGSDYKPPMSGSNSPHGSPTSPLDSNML

| Substance | Kd (BMP6 (Homo sapiens)) [nM] | Kd (BMP2 (Homo sapiens) [1]) [nM] | Kd (BMP2 (Homo sapiens) [2]) [nM] | further results |
| --- | --- | --- | --- | --- |
| RGMa (from UniProt Q96B86) | 55 | 22 | – | – |
| RGMa.Fc ECD (from UniProt Q6PCX7) | – | 2.46 | 2.4 | Kd (BMP4 (Homo sapiens) [3]): 1.4 nM |
| RGMb (from UniProt Q6NW40) | 28 | 5.5 | – | Kd (BMP4 (Homo sapiens) [4]): 2.6 nM |
| neogenin (from UniProt Q92859) | – | – | – | Kd (netrin): 2 nM |

More lines, main results first:

| Kd (BMP6 (Homo sapiens)) [nM] | Kd (BMP2 (Homo sapiens) [1]) [nM] | Kd (BMP2 (Homo sapiens) [2]) [nM] | Substance | further results |
| --- | --- | --- | --- | --- |
| 8.1 | – | – | HJV (from UniProt Q6ZVN8) | Kd (BMP5 (Homo sapiens)): 17 nM; Kd (BMP7 (Homo sapiens)): 20 nM |
| – | – | 1.5 | RGMb.Fc ECD (from UniProt Q7TQ33) | – |
